We go through nine molecules from US20250043259, “ENDONUCLEASES THAT SELECTIVELY CLEAVE SINGLE-STRANDED NUCLEIC ACIDS AND USES THEREOF” (INSTITUT NATIONAL DE LA RECHERCHE SCIENTIFIQUE, published 2025).

Data set [1] has as its target T1, SsnA (NMV_0044) (Neisseria meningitidis 8013 2C4.3, UniProt Q9K1N6 Q9K1N6:1-94).
T1 sequence: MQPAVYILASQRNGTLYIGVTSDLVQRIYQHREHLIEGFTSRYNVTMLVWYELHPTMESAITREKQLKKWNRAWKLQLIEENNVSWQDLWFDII
The experiment in a line: cleavage_in_vitro. The settings on record: 10 mM MgCl2, 37 C optimum; abolished by EDTA.

The target of data set [2] is T1, SsnA (NMV_0044). Briefly: EMSA. Particulars: no Mg, 50 mM NaCl, 10 mM Tris pH 7.9, 37 C; 0.5 uM protein, 0.8 uM DNA.
In data set [3] the target is T1, SsnA (NMV_0044). The experiment in a line: EMSA; binding preserved, cleavage reduced to varying extents. Particulars: tags: N-terminal 6xHis; label: 5'-carboxyfluorescein; hairpin. How it is done: (§1) Electrophoretic mobility shift assay (EMSA). Gel shift assays, or EMSA, were performed by diluting the proteins in Diluent A (NEB) to the indicated working concentrations. 5′carboxyfluorescin-tagged oligos corresponding to genomic regions of N. meningitidis MC58 were synthesized from Sigma. When needed, complementary oligonucleotides were annealed by mixing equimolar amounts in annealing buffer (10 mM Tris-HCl PH8, 50 mM NaCl, 1 mM EDTA), incubating them 5 minutes at 95° C. and letting them slowly cool down. For the gel-shift assays, proteins were mixed with the fluorescent oligonucleotides in a reaction buffer containing 50 mM NaCl, 10 mM Tris-HCl, 100 μg/ml BSA, pH7.9. The mixes were incubated at 37° C. for 30 minutes before adding native loading dye. Samples were resolved on native 10% TBE-acrylamide gels and imaged with a Typhoon FLA9500 scanner. For branched DNA binding assays, a similar approach was used but the gel was stained with GelStain (Biotium) and imaged on a GelDoc (BioRad) since the oligonucleotides were not fluorescently labelled.

Data set [4] has as its target T1, SsnA (NMV_0044). Briefly: EMSA; no Mg, 37 C; also not cleaved. The settings on record: tags: N-terminal 6xHis; label: 5'-carboxyfluorescein. How it is done:
Gel-shift (top, EMSA) and endonuclease (bottom) assays of 0.5 μM SsnA with 0.8 µM of DNA. Magnesium was omitted from the EMSA reaction mix to allow DNA binding by SsnA without nuclease activity. ssDNArev is the reverse complement of ssDNA. dsDNA is the double-stranded annealed product from ssDNA with ssDNArev. The arrow represents the recognition pattern (NTS repeat) of SsnA. Unless otherwise indicated (last well), assayed proteins were his-tagged.
as §1, with “For branched DNA binding assays, a similar approach was used but the gel was stained with GelStain (Biotium) and imaged on a GelDoc (BioRad) since the oligonucleotides were not fluorescently labelled.” left out
For orientation: A gel shift assay detects complexes by their altered migration in electrophoresis.

For data set [5], the target named is T1, SsnA (NMV_0044). The experiment in a line: EMSA; unable to interact with RNA. The settings on record: tags: N-terminal 6xHis. Here is the method:
as §1

On to ssDNA (100 nt, NTS), for which the activity in data set [1] came out at 100 % cleaved. The molecule further displayed a binding in data set [2] of 100 % bound.

B1: NTS#2 (ssDNA)
DNA: GTCATTCCCACGAACCTACATTCCGTCATTCCCACGAAAGTGGGAATCTAGAATCTCTAAAGCTTCAGCTAACCTTTGAATATTGCTGTTGTTCTAAGGT
On to B1, for which, in data set [3], the binding result is reported as “binds”.

B2: NTS#1 (ssDNA)
DNA: GAGGTTTCGGGCAACTTCTAAACCGTCATTCCCGCGCAGGCGGGAATCCAGACCATTGGACAGCAGCAATATTCAAAGATTATCTGAAAGTCCGGGATTC
As to B2, in data set [3], the binding result was “binds”.

B3: NTS#5 (ssDNA)
DNA: GTCATTCCCACGAACCTACATTCCGTCATTCCCACGAAAGTGGGAATCCAGTGCGTTGAGTTTCAGTCATTTCCAATAAATTGCCTTAGTATTGAATGTC
With B3, the binding result in data set [3] is given as “binds”.

B4: ssDNArev (ssDNA)
DNA: CCAGGTCTGTCGGTGCGGAAACTTATCGGATAAAACGGTTTCTTTAGATTTTACGTTCTAGATTCCCGCTTTCGCGGGAATGACGGAATATTTTTGAATT
modifications: [none]
Regarding B4, in data set [4], the binding result was “no binding”.

B5: dsDNA (100 bp, NTS) (dsDNA)
DNA 1: AATTCAAAAATATTCCGTCATTCCCGCGAAAGCGGGAATCTAGAACGTAAAATCTAAAGAAACCGTTTTATCCGATAAGTTTCCGCACCGACAGACCTGG
DNA 2: B4 DNA
Turning to B5, in data set [4], the binding result was “no binding”.

B6: NTS#4 (ssDNA)
DNA: TAAATGACCCCAACTTAAAATCCCGTCATTCCCGCGCAGGCGGGAATCTAGGTCTGTCGGTGCGGAAACTTATCGGGTAAAACGGTTTCTTGAGATTTTG
On to B6, for which the binding result in data set [3] was “binds”.

B7: NTS#3 (ssDNA)
DNA: ATCCCGTCATTCCCGCCACTTTCCGTCATTCCCGCGAAAGCGGGAATCTAGAATCTCGGACTTTCAGATAATCTTTGAATATTGCTGTTGTTCTAAGGTC
As for B7, the binding result in data set [3] is listed as “binds”.

AAAAAUAUUCCGUCAUUCCCGCGAAAGCGGGAAUCUA (ssRNA) [RNA37]: in data set [5], the binding result is given as “no binding”.
